The target in experiment [1] is Mycobacterium tuberculosis RNA polymerase core (M. tuberculosis) (UniProt P9WGZ1). Put plainly: SEC. For orientation: Size exclusion chromatography separates by hydrodynamic size, large species first.
The target in experiment [2] is Mycobacterium tuberculosis RNA polymerase holoenzyme with the σ^B subunit (M. tuberculosis) (UniProt P9WGZ1). Put plainly: SEC.
Experiment [3] has the same target. Put plainly: cryo-EM structure.
For experiment [4] the target is unchanged. Kind of experiment: negative stain EM.

Several values for one entry are separate records, joined by “and”; a condition that tells them apart may be missing. Identical values can stand only once.

“Mycobacterium tuberculosis RNA polymerase core (from UniProt P9WGZ1;P9WGY9;P9WGY7;P9WGY5) (complex)”: the stoichiometry N in experiment [1] is 2.

In experiment [2], “Mycobacterium tuberculosis RNA polymerase holoenzyme with the σ^B subunit, P9WGZ1;P9WGY9;P9WGY7;P9WGY5;P9WGI5” registered a stoichiometry N of 8. For the same substance, in experiment [3], the percent of oligomer particles that are octamers is 80%; the percent of oligomer particles that are tetramers came out at 20%; the stoichiometry N is 8 and 4. Also, in experiment [4], the RNAP concentration from which octamers form is 0.1 µM, the percent of molecules in oligomers after 24 h at 4 °C was 86% and the stoichiometry N turned out to be 8.

Usually stoichiometry N stands for a count of units in the complex or per binding partner.

Source of the values: PMC9886945.
